Results as given in the Human Domainome abundance scans (Beltran et al. 2025).
± gives the uncertainty stated by the source.

B1: Histone H1t, residues 44 to 112; numbered along this chain, P22492 (parent)
chain: VSKLITEALSVSQERVGMSLVALKKALAAAGYDVEKNNSRIKLSLKSLVNKGILVQTRGTGASGSFKLS
B2: Serine/threonine-protein kinase LATS1, residues 98 to 141; numbered along this chain, O95835 (parent)
chain: TSEVNPQMLQDLQAAGFDEDMVIQALQKTNNRSIEAAIEFISKM

Variants of: B1
Assay: abundance fitness (aPCA) (normalised: wild type 0, dead -1); higher = more abundant; growth selection in yeast, the domain comes from the species named
Details: Homo sapiens

Variant	abundance fitness
V1A	-0.12 ± 0.35

Variants of: B2
Assay: as above
Details: Homo sapiens

Variant	abundance fitness
D20T	-0.059 ± 0.049
D20S	-0.063 ± 0.044
D20W	-0.268 ± 0.042
D20Y	-0.535 ± 0.12
D20V	-0.261 ± 0.043
D20N	-0.06 ± 0.087
D20M	-0.168 ± 0.046
T29I	-0.589 ± 0.073
T29S	-0.463 ± 0.04
T29D	-0.902 ± 0.29
T29Q	-0.563 ± 0.071
T29M	-0.919 ± 0.1
T29C	-0.375 ± 0.043
T29E	-0.529 ± 0.046
T29W	-1.09 ± 0.083
T29G	-0.527 ± 0.033
D18G	-0.169 ± 0.035
D18V	-0.597 ± 0.044
D18M	-0.59 ± 0.058
D18Q	-0.077 ± 0.068
D18N	-0.21 ± 0.059
D18P	-0.113 ± 0.057
D18S	-0.169 ± 0.055
D18Y	-0.837 ± 0.11

Variant	abundance fitness
D18E	0.036 ± 0.04
Q7V	-0.147 ± 0.034
Q7K	0.009 ± 0.04
Q7S	-0.149 ± 0.042
Q7L	-0.296 ± 0.04
Q7C	-0.354 ± 0.073
A25M	-0.887 ± 0.1
A25L	-0.802 ± 0.057
A25S	-0.295 ± 0.035
A25T	-0.741 ± 0.058
A25I	-0.631 ± 0.24
A25K	-0.684 ± 0.083
A25G	-0.443 ± 0.033
Q24E	0.083 ± 0.038
Q24S	-0.196 ± 0.043
Q24A	-0.066 ± 0.034
Q24D	-0.005 ± 0.05
Q24R	-0.103 ± 0.033
Q24L	0.013 ± 0.036
Q24I	-0.015 ± 0.083
Q24M	-0.028 ± 0.037
A37R	-0.649 ± 0.046
A37W	-1.17 ± 0.09
A37L	-0.728 ± 0.06

Variant	abundance fitness
A37K	-1.03 ± 0.29
A37P	-0.42 ± 0.1
A37G	-0.401 ± 0.032
A37V	-0.453 ± 0.037
V4E	-0.402 ± 0.045
V4T	-0.218 ± 0.053
V4C	-0.277 ± 0.044
V4F	-0.357 ± 0.066
V4D	-0.344 ± 0.049
V4S	-0.444 ± 0.038
L26W	-0.683 ± 0.045
L26D	-0.354 ± 0.059
L26P	-0.341 ± 0.052
L26K	-0.424 ± 0.069
L26A	-0.523 ± 0.037
L26F	-0.54 ± 0.096
L26V	-0.571 ± 0.044
L26E	-0.263 ± 0.041
F40T	-0.16 ± 0.045
F40V	-0.097 ± 0.036
F40Q	-0.068 ± 0.046
F40D	-0.055 ± 0.058
F40M	-0.042 ± 0.038
F40C	-0.016 ± 0.058

Variant	abundance fitness
Q10M	-0.128 ± 0.043
Q10T	-0.195 ± 0.04
Q10C	-0.225 ± 0.053
Q10P	-1 ± 0.11
Q10H	0.019 ± 0.14
Q10N	-0.105 ± 0.24
A36D	-0.068 ± 0.058
A36K	-0.21 ± 0.05
A36C	-0.169 ± 0.041
A36S	-0.073 ± 0.05
A36P	-0.36 ± 0.04
A36N	-0.327 ± 0.13
M8Q	-0.541 ± 0.066
M8G	-0.583 ± 0.038
M8H	-0.244 ± 0.084
M8I	-0.431 ± 0.062
M8D	-0.419 ± 0.074
M8T	-0.447 ± 0.067
M8R	-0.597 ± 0.043
M8F	-0.162 ± 0.057
M8S	-0.543 ± 0.04
F17R	-0.648 ± 0.046
F17N	-0.116 ± 0.26
F17A	-0.449 ± 0.045

Variant	abundance fitness
F17Q	-0.366 ± 0.049
F17E	-0.272 ± 0.043
F17T	-0.609 ± 0.052
F17C	-0.488 ± 0.07
F17W	-0.198 ± 0.048
E3N	-0.119 ± 0.14
E3L	-0.326 ± 0.046
E3H	-0.148 ± 0.071
E3Q	-0.138 ± 0.048
E3G	-0.117 ± 0.034
E3Y	-0.2 ± 0.14
E3A	-0.223 ± 0.041
E3F	-0.18 ± 0.095
E3D	-0.099 ± 0.069
P6H	-0.001 ± 0.083
P6F	-0.115 ± 0.07
P6K	0.101 ± 0.042
P6S	-0.052 ± 0.05
P6R	0.039 ± 0.032
P6D	0.007 ± 0.066
P6L	-0.13 ± 0.035
P6A	0.037 ± 0.035
E19A	-0.097 ± 0.039
E19L	-0.26 ± 0.041

Variant	abundance fitness
E19R	0.078 ± 0.033
E19P	-0.104 ± 0.043
E19T	0.046 ± 0.042
E19N	-0.233 ± 0.05
E19V	-0.17 ± 0.033
E19Q	-0.012 ± 0.044
E19F	-0.31 ± 0.054
E19G	-0.103 ± 0.035
E19S	-0.035 ± 0.045
T1F	-0.032 ± 0.23
T1L	-0.303 ± 0.071
T1A	-0.062 ± 0.042
T1M	-0.11 ± 0.067
T1I	-0.079 ± 0.056
T1N	0.316 ± 0.13
T1Y	-0.26 ± 0.11
N5V	-0.716 ± 0.065
N5P	-0.637 ± 0.052
N5H	-0.211 ± 0.075
N5I	-0.82 ± 0.11
N5D	-0.028 ± 0.051
N5F	-1.21 ± 0.2
N5K	-0.638 ± 0.052
N5M	-0.951 ± 0.096

Variant	abundance fitness
A15M	0.103 ± 0.062
A15N	-0.309 ± 0.073
A15W	-0.442 ± 0.047
A15C	-0.287 ± 0.06
A15L	-0.003 ± 0.038
A15P	-0.954 ± 0.1
A15I	-0.238 ± 0.054
R32E	0.095 ± 0.042
R32M	-0.107 ± 0.05
R32C	0.007 ± 0.068
R32W	-0.484 ± 0.043
R32D	-0.26 ± 0.042
R32V	0.017 ± 0.036
R32P	-0.434 ± 0.043
N31R	-0.845 ± 0.046
N31Q	-0.63 ± 0.089
N31K	-0.699 ± 0.12
N31E	-0.253 ± 0.042
N31A	-0.416 ± 0.035
N31W	-0.557 ± 0.046
N31D	-0.506 ± 0.081
S2R	-0.054 ± 0.034
